Target: T1, CD3 epsilon homodimer protein (UniProt P07766 23-126)
T1 construct: also called CD3 (CD3 epsilon)
Assay: SPR, CD3 epsilon homodimer on chip, one-arm antibody as analyte;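 also: surface plasmon resonance at 25 °C with CD3 epsilon homodimer amine-coupled to a CM4 sensor chip, antibody injected as analyte, HBS-EP+ as running buffer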

T1 sequence (P07766 23-126): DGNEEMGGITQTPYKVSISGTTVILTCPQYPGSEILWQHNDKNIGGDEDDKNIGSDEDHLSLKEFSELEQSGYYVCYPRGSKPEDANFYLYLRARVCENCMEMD

Row | Binder | KD ratio (KD of CE115HA000/KD of altered form)
1 | CE115HA000 G98A (antibody, human IgG1, kappa, L234A L235A, N297A, name in Kabat numbering, one-arm antibody) heavy: QVQLVESGGGVVQPGRSLRLSCAASGFTFSNAWMHWVRQAPGKGLEWVAQIKAKSNNYATYYAESVKGRFTISRDDSKNSLYLQMNSLKTEDTAVYYCRYVHYAAYYGVDAWGQGTTVTVSSASTKGPSVFPLAPSSKSTSGGTAALGCLVKDYFPEPVTVSWNSGALTSGVHTFPAVLQSSGLYSLSSVVTVPSSSLGTQTYICNVNHKPSNTKVDKKVEPKSCDKTHTCPPCPAPEAAGGPSVFLFPPKPKDTLMISRTPEVTCVVVDVSHEDPEVKFNWYVDGVEVHNAKTKPREEQYASTYRVVSVLTVLHQDWLNGKEYKCKVSNKALPAPIEKTISKAKGQPREPQVYTLPPSRCELTKNQVSLSCAVKGFYPSDIAVEWESNGQPENNYKTTPPVLDSDGSFFLVSKLTVDKSRWQQGNVFSCSVMHEALHNHYTQKSLSLSPDYKDDDDK EPKSSDKTHTCPPCPAPELLGGPSVFLFPPKPKDTLMISRTPEVTCVVVDVSHEDPEVKFNWYVDGVEVHNAKTKPREEQYNSTYRVVSVLTVLHQDWLNGKEYKCKVSNKALPAPIEKTISKAKGQPREPQVCTLPPSRDELTKNQVSLWCLVKGFYPSDIAVEWESNGQPENNYKTTPPVLDSDGSFFLYSKLTVDKSRWQQGNVFSCSVMHEALHNRYTQKSLSLSP light: DIVMTQSPLSLPVTPGEPASISCRSSQSLVHSNRNTYLHWYQQKPGQAPRLLIYKVSNRFSGVPDRFSGSGSGTDFTLKISRVEAEDVGVYYCGQGTQVPYTFGQGTKLEIKRTVAAPSVFIFPPSDEQLKSGTASVVCLLNNFYPREAKVQWKVDNALQSGNSQESVTEQDSKDSTYSLSSTLTLSKADYEKHKVYACEVTHQGLSSPVTKSFNRGEC | 0.98
2 | CE115HA000 G98H (antibody, human IgG1, kappa, L234A L235A, N297A, name in Kabat numbering, one-arm antibody) heavy: QVQLVESGGGVVQPGRSLRLSCAASGFTFSNAWMHWVRQAPGKGLEWVAQIKAKSNNYATYYAESVKGRFTISRDDSKNSLYLQMNSLKTEDTAVYYCRYVHYHAYYGVDAWGQGTTVTVSSASTKGPSVFPLAPSSKSTSGGTAALGCLVKDYFPEPVTVSWNSGALTSGVHTFPAVLQSSGLYSLSSVVTVPSSSLGTQTYICNVNHKPSNTKVDKKVEPKSCDKTHTCPPCPAPEAAGGPSVFLFPPKPKDTLMISRTPEVTCVVVDVSHEDPEVKFNWYVDGVEVHNAKTKPREEQYASTYRVVSVLTVLHQDWLNGKEYKCKVSNKALPAPIEKTISKAKGQPREPQVYTLPPSRCELTKNQVSLSCAVKGFYPSDIAVEWESNGQPENNYKTTPPVLDSDGSFFLVSKLTVDKSRWQQGNVFSCSVMHEALHNHYTQKSLSLSPDYKDDDDK EPKSSDKTHTCPPCPAPELLGGPSVFLFPPKPKDTLMISRTPEVTCVVVDVSHEDPEVKFNWYVDGVEVHNAKTKPREEQYNSTYRVVSVLTVLHQDWLNGKEYKCKVSNKALPAPIEKTISKAKGQPREPQVCTLPPSRDELTKNQVSLWCLVKGFYPSDIAVEWESNGQPENNYKTTPPVLDSDGSFFLYSKLTVDKSRWQQGNVFSCSVMHEALHNRYTQKSLSLSP light: DIVMTQSPLSLPVTPGEPASISCRSSQSLVHSNRNTYLHWYQQKPGQAPRLLIYKVSNRFSGVPDRFSGSGSGTDFTLKISRVEAEDVGVYYCGQGTQVPYTFGQGTKLEIKRTVAAPSVFIFPPSDEQLKSGTASVVCLLNNFYPREAKVQWKVDNALQSGNSQESVTEQDSKDSTYSLSSTLTLSKADYEKHKVYACEVTHQGLSSPVTKSFNRGEC | 1.14
3 | CE115HA000 G98D (antibody, human IgG1, kappa, L234A L235A, N297A, name in Kabat numbering, one-arm antibody) heavy: QVQLVESGGGVVQPGRSLRLSCAASGFTFSNAWMHWVRQAPGKGLEWVAQIKAKSNNYATYYAESVKGRFTISRDDSKNSLYLQMNSLKTEDTAVYYCRYVHYDAYYGVDAWGQGTTVTVSSASTKGPSVFPLAPSSKSTSGGTAALGCLVKDYFPEPVTVSWNSGALTSGVHTFPAVLQSSGLYSLSSVVTVPSSSLGTQTYICNVNHKPSNTKVDKKVEPKSCDKTHTCPPCPAPEAAGGPSVFLFPPKPKDTLMISRTPEVTCVVVDVSHEDPEVKFNWYVDGVEVHNAKTKPREEQYASTYRVVSVLTVLHQDWLNGKEYKCKVSNKALPAPIEKTISKAKGQPREPQVYTLPPSRCELTKNQVSLSCAVKGFYPSDIAVEWESNGQPENNYKTTPPVLDSDGSFFLVSKLTVDKSRWQQGNVFSCSVMHEALHNHYTQKSLSLSPDYKDDDDK EPKSSDKTHTCPPCPAPELLGGPSVFLFPPKPKDTLMISRTPEVTCVVVDVSHEDPEVKFNWYVDGVEVHNAKTKPREEQYNSTYRVVSVLTVLHQDWLNGKEYKCKVSNKALPAPIEKTISKAKGQPREPQVCTLPPSRDELTKNQVSLWCLVKGFYPSDIAVEWESNGQPENNYKTTPPVLDSDGSFFLYSKLTVDKSRWQQGNVFSCSVMHEALHNRYTQKSLSLSP light: DIVMTQSPLSLPVTPGEPASISCRSSQSLVHSNRNTYLHWYQQKPGQAPRLLIYKVSNRFSGVPDRFSGSGSGTDFTLKISRVEAEDVGVYYCGQGTQVPYTFGQGTKLEIKRTVAAPSVFIFPPSDEQLKSGTASVVCLLNNFYPREAKVQWKVDNALQSGNSQESVTEQDSKDSTYSLSSTLTLSKADYEKHKVYACEVTHQGLSSPVTKSFNRGEC | 2.36
4 | CE115HA000 G98K (antibody, human IgG1, kappa, L234A L235A, N297A, name in Kabat numbering, one-arm antibody) heavy: QVQLVESGGGVVQPGRSLRLSCAASGFTFSNAWMHWVRQAPGKGLEWVAQIKAKSNNYATYYAESVKGRFTISRDDSKNSLYLQMNSLKTEDTAVYYCRYVHYKAYYGVDAWGQGTTVTVSSASTKGPSVFPLAPSSKSTSGGTAALGCLVKDYFPEPVTVSWNSGALTSGVHTFPAVLQSSGLYSLSSVVTVPSSSLGTQTYICNVNHKPSNTKVDKKVEPKSCDKTHTCPPCPAPEAAGGPSVFLFPPKPKDTLMISRTPEVTCVVVDVSHEDPEVKFNWYVDGVEVHNAKTKPREEQYASTYRVVSVLTVLHQDWLNGKEYKCKVSNKALPAPIEKTISKAKGQPREPQVYTLPPSRCELTKNQVSLSCAVKGFYPSDIAVEWESNGQPENNYKTTPPVLDSDGSFFLVSKLTVDKSRWQQGNVFSCSVMHEALHNHYTQKSLSLSPDYKDDDDK EPKSSDKTHTCPPCPAPELLGGPSVFLFPPKPKDTLMISRTPEVTCVVVDVSHEDPEVKFNWYVDGVEVHNAKTKPREEQYNSTYRVVSVLTVLHQDWLNGKEYKCKVSNKALPAPIEKTISKAKGQPREPQVCTLPPSRDELTKNQVSLWCLVKGFYPSDIAVEWESNGQPENNYKTTPPVLDSDGSFFLYSKLTVDKSRWQQGNVFSCSVMHEALHNRYTQKSLSLSP light: DIVMTQSPLSLPVTPGEPASISCRSSQSLVHSNRNTYLHWYQQKPGQAPRLLIYKVSNRFSGVPDRFSGSGSGTDFTLKISRVEAEDVGVYYCGQGTQVPYTFGQGTKLEIKRTVAAPSVFIFPPSDEQLKSGTASVVCLLNNFYPREAKVQWKVDNALQSGNSQESVTEQDSKDSTYSLSSTLTLSKADYEKHKVYACEVTHQGLSSPVTKSFNRGEC | 4.85

Further lines, results first:

Row | KD ratio (KD of CE115HA000/KD of altered form) | Binder
5 | 1.04 | CE115HA000 G98Q (antibody, human IgG1, kappa, L234A L235A, N297A, name in Kabat numbering, one-arm antibody) heavy: QVQLVESGGGVVQPGRSLRLSCAASGFTFSNAWMHWVRQAPGKGLEWVAQIKAKSNNYATYYAESVKGRFTISRDDSKNSLYLQMNSLKTEDTAVYYCRYVHYQAYYGVDAWGQGTTVTVSSASTKGPSVFPLAPSSKSTSGGTAALGCLVKDYFPEPVTVSWNSGALTSGVHTFPAVLQSSGLYSLSSVVTVPSSSLGTQTYICNVNHKPSNTKVDKKVEPKSCDKTHTCPPCPAPEAAGGPSVFLFPPKPKDTLMISRTPEVTCVVVDVSHEDPEVKFNWYVDGVEVHNAKTKPREEQYASTYRVVSVLTVLHQDWLNGKEYKCKVSNKALPAPIEKTISKAKGQPREPQVYTLPPSRCELTKNQVSLSCAVKGFYPSDIAVEWESNGQPENNYKTTPPVLDSDGSFFLVSKLTVDKSRWQQGNVFSCSVMHEALHNHYTQKSLSLSPDYKDDDDK EPKSSDKTHTCPPCPAPELLGGPSVFLFPPKPKDTLMISRTPEVTCVVVDVSHEDPEVKFNWYVDGVEVHNAKTKPREEQYNSTYRVVSVLTVLHQDWLNGKEYKCKVSNKALPAPIEKTISKAKGQPREPQVCTLPPSRDELTKNQVSLWCLVKGFYPSDIAVEWESNGQPENNYKTTPPVLDSDGSFFLYSKLTVDKSRWQQGNVFSCSVMHEALHNRYTQKSLSLSP light: DIVMTQSPLSLPVTPGEPASISCRSSQSLVHSNRNTYLHWYQQKPGQAPRLLIYKVSNRFSGVPDRFSGSGSGTDFTLKISRVEAEDVGVYYCGQGTQVPYTFGQGTKLEIKRTVAAPSVFIFPPSDEQLKSGTASVVCLLNNFYPREAKVQWKVDNALQSGNSQESVTEQDSKDSTYSLSSTLTLSKADYEKHKVYACEVTHQGLSSPVTKSFNRGEC
6 | 0.88 | CE115HA000 G98P (antibody, human IgG1, kappa, L234A L235A, N297A, name in Kabat numbering, one-arm antibody) heavy: QVQLVESGGGVVQPGRSLRLSCAASGFTFSNAWMHWVRQAPGKGLEWVAQIKAKSNNYATYYAESVKGRFTISRDDSKNSLYLQMNSLKTEDTAVYYCRYVHYPAYYGVDAWGQGTTVTVSSASTKGPSVFPLAPSSKSTSGGTAALGCLVKDYFPEPVTVSWNSGALTSGVHTFPAVLQSSGLYSLSSVVTVPSSSLGTQTYICNVNHKPSNTKVDKKVEPKSCDKTHTCPPCPAPEAAGGPSVFLFPPKPKDTLMISRTPEVTCVVVDVSHEDPEVKFNWYVDGVEVHNAKTKPREEQYASTYRVVSVLTVLHQDWLNGKEYKCKVSNKALPAPIEKTISKAKGQPREPQVYTLPPSRCELTKNQVSLSCAVKGFYPSDIAVEWESNGQPENNYKTTPPVLDSDGSFFLVSKLTVDKSRWQQGNVFSCSVMHEALHNHYTQKSLSLSPDYKDDDDK EPKSSDKTHTCPPCPAPELLGGPSVFLFPPKPKDTLMISRTPEVTCVVVDVSHEDPEVKFNWYVDGVEVHNAKTKPREEQYNSTYRVVSVLTVLHQDWLNGKEYKCKVSNKALPAPIEKTISKAKGQPREPQVCTLPPSRDELTKNQVSLWCLVKGFYPSDIAVEWESNGQPENNYKTTPPVLDSDGSFFLYSKLTVDKSRWQQGNVFSCSVMHEALHNRYTQKSLSLSP light: DIVMTQSPLSLPVTPGEPASISCRSSQSLVHSNRNTYLHWYQQKPGQAPRLLIYKVSNRFSGVPDRFSGSGSGTDFTLKISRVEAEDVGVYYCGQGTQVPYTFGQGTKLEIKRTVAAPSVFIFPPSDEQLKSGTASVVCLLNNFYPREAKVQWKVDNALQSGNSQESVTEQDSKDSTYSLSSTLTLSKADYEKHKVYACEVTHQGLSSPVTKSFNRGEC
